Laboratory results: patent publication US20250147035A1, “METHODS FOR DETECTION OF POST-TRANSLATIONAL MODIFICATIONS” (Quantum-Si Incorporated, priority 2023, published 2025)
Where two headings read alike, the source gives them in different places. Primed or numbered codes have the meaning given here. Where no end group is shown, it is not given here. [ ]: non-standard residue; d: D form. pS = N[C@@H](COP(=O)(O)O)C(=O)O; Biotin′ = not defined here

Experiments:
…-Biotin = molecular target: T1, …-Biotin; assay: Octet (BLI), fixed reagent concentration
T1 sequence (peptide, C-terminal Biotin): SAKLDEESILKQ

p[…]-Biotin = assay: Octet binding assay of PTM-specific affinity reagent candidates, pTQR peptide; settings: fixed concentration of reagent
Protocol: This Example characterizes an exemplary phosphorylated threonine recognizer for use in methods of the disclosure. Octet binding assays at a fixed concentration of PTM-specific affinity reagent candidates were evaluated for binding with phospho-threonine, phospho-serine containing peptides (p[…]-Biotin; p[…]-Biotin; p[…]-Biotin), and control peptides without modifications ([…]-Biotin; […]-Biotin).

SAKLDEESILKQ-Biotin = assay: Octet binding assay of PTM-specific affinity reagent candidates, SA control peptide; parameters: unit not given here; settings: fixed concentration of reagent
Source text: This Example characterizes an exemplary phosphorylated threonine recognizer for use in methods of the disclosure.

p…-Biotin = molecular target: T2, p…-Biotin; assay: Octet (BLI), fixed reagent concentration
T2 sequence (peptide, phosphothreonine at 1; C-terminal Biotin): TAKLDEESILKQ

pSAKLDEESILKQ-Biotin = molecular target: T3, pSAKLDEESILKQ-Biotin; assay: Octet (BLI), fixed reagent concentration;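 also: octet binding of candidate PTM-specific affinity reagents, each at one fixed concentration, to biotinylated phospho-Thr or phospho-Ser peptides, with unmodified biotinylated peptides serving as controls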
T3 peptide: [pS]AKLDEESILKQ-{Biotin′}
Protocol: Octet binding assays at a fixed concentration of PTM-specific affinity reagent candidates were evaluated for binding with phospho-threonine, phospho-serine containing peptides (p[sequence]-Biotin; p[sequence]-Biotin; p[sequence]-Biotin), and control peptides without modifications ([sequence]-Biotin; [sequence]-Biotin).

Molecule | Octet binding assay response (…-Biotin) | Octet binding assay response (pSAKLDEESILKQ-Biotin) | also measured
PM09 (Human/BRCA1 Tandem domain) (from UniProt P38398 1646-1859) | 0.1 | – | –
PM08: Human/DLG4, SEQ ID NO: 8 | – | – | Octet binding assay response, pTQR (p[…]-Biotin): 1.2
PM15: Human/Pin1, SEQ ID NO: 15 | – | – | Octet binding assay response, pTQR (p[…]-Biotin): 7.4; Octet binding assay response, SA (SAKLDEESILKQ-Biotin; SA = […]-Biotin (control)): 0.5
PM03: Human/14-3-3 protein eta, SEQ ID NO: 3 | – | – | Octet binding assay response, pTQR (p[…]-Biotin): 0.4; Octet binding assay response, SA (SAKLDEESILKQ-Biotin; SA = […]-Biotin (control)): 0.3
PM02: Human/14-3-3 protein theta, SEQ ID NO: 2 | – | – | Octet binding assay response, pTQR (p[…]-Biotin): 0.5
PM15 (Human/Pin1) (from UniProt Q13526 1-163) | 0.5 | – | –
PM16 (Human/PLK1) (from UniProt P53350 326-603) | 0.5 | – | Octet binding assay response (p…-Biotin; pTA phosphothreonine peptide): 1.7; Octet binding assay response (p…-Biotin; pTQR phosphothreonine peptide): 2.1
PM08 (Human/DLG4) (from UniProt P78352 426-724) | 0.3 | – | Octet binding assay response (p…-Biotin): 1.2
PM22 (Schizosaccharomyces pombe/FCP1) (other) MKQKVLKGCRLLFSGVIPLGVDVLSSDIAKWAMSFGAEVVLDFSVPPTHLIAAKIRTEKVKKAVSMGNIKVVKLNWLTESLSQWKRLPESDYLL | 0.2 | 0.1 | –
PM01 (Human/14-3-3 protein epsilon) (other) MDDREDLVYQAKLAEQAERYDEMVESMKKVAGMDVELTVEERNLLSVAYKNVIGARRASWRIISSIEQKEENKGGEDKLKMIREYRQMVETELKLICCDILDVLDKHLIPAANTGESKVFYYKMKGDYHRYLAEFATGNDRKEAAENSLVAYKAASDIAMTELPPTHPIRLGLALNFSVFYYEILNSPDRACRLAKAAFDDAIAELDTLSEESYKDSTLIMQLLRDNLTLWTSDMQGDGEEQNKEALQDVEDENQ | 0.2 | 0.2 | –
PM04 (Human/14-3-3 protein gamma) (other) MVDREQLVQKARLAEQAERYDDMAAAMKNVTELNEPLSNEERNLLSVAYKNVVGARRSSWRVISSIEQKTSADGNEKKIEMVRAYREKIEKELEAVCQDVLSLLDNYLIKNCSETQYESKVFYLKMKGDYYRYLAEVATGEKRATVVESSEKAYSEAHEISKEHMQPTHPIRLGLALNYSVFYYEIQNAPEQACHLAKTAFDDAIAELDTLNEDSYKDSTLIMQLLRDNLTLWTSDQQDDDGGEGNN | 0.1 | 0.1 | –
PM11 (Human/TOPBP1) (other) MVYNMVMSDVTISCTSLEKEKREEVHKYVQMMGGRVYRDLNVSVTHLIAGEVGSKKYLVAANLKKPILLPSWIKTLWEKSQEKKITRYTD | 0.2 | 0.2 | –
PM17 (Human/DIDO1) (other) MTLFLSRLSTIWKGFINMQSVAKFVTKAYPVSGCFDYLSEDLPDTIHIGGRIAPKTVWDYVGKLKSSVSKELCLIRFHPATEEEEVAYISLYSYFSSRGRFGVVANNNRHVKDLYLIPLSAQDPVPSKLLPFEGPGLESPRPNIILGLVICQKIKRPANS | 0.2 | 0.2 | –
PM22: Schizosaccharomyces pombe/FCP1, SEQ ID NO: 22 (protein) MKQKVLKGCRLLFSGVIPLGVDVLSSDIAKWAMSFGAEVVLDFSVPPTHLIAAKIRTEKVKKAVSMGNIKVVKLNWLTESLSQWKRLPESDYLL | – | – | Octet binding assay response, SA (SAKLDEESILKQ-Biotin; SA = SAKLDEESILKQ-Biotin (control)): 0.2
